# Measured values: publication PMC3713096 (Molecular cell, 2013)
# B1: GST-Cdc20_(166-499) (GST-Cdc20^C) (domain or fragment, human, UniProt Q12834 166-499, looked up)
# chain: RYIPSLPDRILDAPEIRNDYYLNLVDWSSGNVLAVALDNSVYLWSASSGDILQLLQMEQPGEYISSVAWIKEGNYLAVGTSSAEVQLWDVQQQKRLRNMTSHSARVGSLSWNSYILSSGSRSGHIHHHDVRVAEHHVATLSGHSQEVCGLRWAPDGRHLASGGNDNLVNVWPSAPGEGGWVPLQTFTQHQGAVKAVAWCPWQSNVLATGGGTSDRHIRIWNVCSGACLSAVDAHSQVCSILWSPHYKELISGHGFAQNQLVIWKYPTMAKVAELKGHTSRVLSLTMSPDGATVASAAADETLRLWRCFELDPARRREREKASAAKSSLIHQGIR
# B2: Cdc20^C (Cdc20_(166-499), free in solution) (domain or fragment, human, UniProt Q12834 166-499, looked up)
# chain: RYIPSLPDRILDAPEIRNDYYLNLVDWSSGNVLAVALDNSVYLWSASSGDILQLLQMEQPGEYISSVAWIKEGNYLAVGTSSAEVQLWDVQQQKRLRNMTSHSARVGSLSWNSYILSSGSRSGHIHHHDVRVAEHHVATLSGHSQEVCGLRWAPDGRHLASGGNDNLVNVWPSAPGEGGWVPLQTFTQHQGAVKAVAWCPWQSNVLATGGGTSDRHIRIWNVCSGACLSAVDAHSQVCSILWSPHYKELISGHGFAQNQLVIWKYPTMAKVAELKGHTSRVLSLTMSPDGATVASAAADETLRLWRCFELDPARRREREKASAAKSSLIHQGIR
# What was measured:
# Assay in all cases: pull-down
# [1] = biological target: Cdc20 (full length, Cdc20^FL) (human, UniProt Q12834 1-499)
# BubR1_(1-363) = BubR1_(1-363) (human, UniProt O60566 1-363)
# GST-BubR1^N = GST-BubR1^N (human, UniProt O60566 1-477)
# [2] = biological target: B1
# [3] = biological target: B2
binder,measurement,setting,value
"BubR1_(1-477) (BubR1^N) (domain or fragment, human, UniProt O60566 1-477, looked up) MAAVKKEGGALSEAMSLEGDEWELSKENVQPLRQGRIMSTLQGALAQESACNNTLQQQKRAFEYEIRFYTGNDPLDVWDRYISWTEQNYPQGGKESNMSTLLERAVEALQGEKRYYSDPRFLNLWLKLGRLCNEPLDMYSYLHNQGIGVSLAQFYISWAEEYEARENFRKADAIFQEGIQQKAEPLERLQSQHRQFQARVSRQTLLALEKEEEEEVFESSVPQRSTLAELKSKGKKTARAPIIRVGGALKAPSQNRGLQNPFPQQMQNNSRITVFDENADEASTAELSKPTVQPWIAPPMPRAKENELQAGPWNTGRSLEHRPRGNTASLIAVPAVLPSFTPYVEETARQPVMTPCKIEPSINHILSTRKPGKEEGDPLQRVQSHQQASEEKKEKMMYCKEKIYAGVGEFSFEEIRAEVFRKKLKEQREAELLTSAEKRAEMQKQIEEMEKKLKEIQTTQQERTGDQQEETMPTKET",fold increase of association with Mad2 against without Mad2,[1],~6 fold
B1,binding result,BubR1_(1-363),binds
B2,binding result,GST-BubR1^N,binds
"Cdc20_(1-163) (Cdc20^N) (domain or fragment, human, UniProt Q12834 1-163, looked up) MAQFAFESDLHSLLQLDAPIPNAPPARWQRKAKEAAGPAPSPMRAANRSHSAGRTPGRTPGKSSSKVQTTPSKPGGDRYIPHRSAAQMEVASFLLSKENQPENSQTPTKKEHQKAWALNLNGFDVEEAKILRLSGKPQNAPEGYQNRLKVLYSQKATPGSSRK",binding result,[2],binds
"GST-Cdc20^N (domain or fragment, human, UniProt Q12834 1-163, looked up) MAQFAFESDLHSLLQLDAPIPNAPPARWQRKAKEAAGPAPSPMRAANRSHSAGRTPGRTPGKSSSKVQTTPSKPGGDRYIPHRSAAQMEVASFLLSKENQPENSQTPTKKEHQKAWALNLNGFDVEEAKILRLSGKPQNAPEGYQNRLKVLYSQKATPGSSRK",binding result,[3],binds
